# Reference: publication PMC2171414
# Legend:
# Assay in all cases: co-IP
# [1] = target: Caf4p-HTM (S. cerevisiae) (UniProt P36130)
# [2] = target: Mdv1p-HTM (S. cerevisiae) (UniProt P47025)
# [3] = target: M3TH-Fis1p (3XMyc/TEV/His8-Fis1p) (S. cerevisiae) (UniProt P40515)
# UniProt P40515, sequence (P40515 whole entry): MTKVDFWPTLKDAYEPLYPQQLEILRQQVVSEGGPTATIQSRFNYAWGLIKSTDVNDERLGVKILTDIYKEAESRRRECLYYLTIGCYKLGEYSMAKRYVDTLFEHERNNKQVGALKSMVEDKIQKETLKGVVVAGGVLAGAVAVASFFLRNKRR
Molecule,percent coimmunoprecipitated [1],percent coprecipitated [2],percent coprecipitated [3],percent coprecipitated [1]
Caf4p-N-HA (residues 1–274) (from UniProt P36130 1-274) (domain or fragment),5%,1%,–,–
"Mdv1p-HA (Mdv1 wt, residues 1–714) (natural protein) MSVNDQITHIGKTLSTTASAFLNYQKSNSNTQDVLTNNGPYKNLLSNTVNNASSTSYFYKRTEHGRFVKNASNTFEDIYSKTRRGDVFRNKFTDNKTCFRMLTYISDDLLNEIPTKEGLKSDADGKLLTEGGENENLRKNASKKETSLFQGFKSYLPIAELAIENTERLNYDTNGTSGTVGAKDVMSKTNERDEIHTELPNFQDSFLIPPGVETKKISSSYSPSALKSFSQTLVNSLEFLNIQKNSTLSEIRDIEVEVENLRQKKEKLLGKIANIEQNQLLLEDNLKQIDDRLDFLEEYGLEVIEANSDENAEDDGMSERKALKNDAIRNEGVTTESISSEASNLPPRRRQQLRDDNSLNRLGAFYSKSKKRHRKSFPTFQQLYEPGTKIGSIMSTHDDFLTCLDFDAPFGTLCTAGYLDHTVKIWDLSKQNKIGELAGHLATINCMQINRDYGTLVTGGRDAALKLWNLNLAQQLYQETQNLTSPTNHIDSPCVHTFEAHTDEVTALSLDPSFLVSGSQDRTIRQWDLRSGKCLQTIDLSFANVLTTSTNVDLSKSTLLTQRNERPSIGALQSFDAALATGTKDGVVRLWDLRSGKVIRTLKGHTDAITSLKFDSACLVTGSYDRTVRIWDLRTGLLNKFHAYSAPVLSLDLFQENAAVVVADEPSVQIYDSEKDESWSCVEQGNETSVSTVKYKENYMVEGRENGDVNIWAV",–,–,–,1%

# Now from value to molecule:
percent coimmunoprecipitated [1],percent coprecipitated [2],percent coprecipitated [3],percent coprecipitated [1],Molecule
5%,1%,5%,–,"Caf4p-HA (Caf4p wt, residues 1–659) (from UniProt P36130 1-643) (natural protein)"
–,–,–,1%,Mdv1p-N-HA (residues 1–300) (domain or fragment) MSVNDQITHIGKTLSTTASAFLNYQKSNSNTQDVLTNNGPYKNLLSNTVNNASSTSYFYKRTEHGRFVKNASNTFEDIYSKTRRGDVFRNKFTDNKTCFRMLTYISDDLLNEIPTKEGLKSDADGKLLTEGGENENLRKNASKKETSLFQGFKSYLPIAELAIENTERLNYDTNGTSGTVGAKDVMSKTNERDEIHTELPNFQDSFLIPPGVETKKISSSYSPSALKSFSQTLVNSLEFLNIQKNSTLSEIRDIEVEVENLRQKKEKLLGKIANIEQNQLLLEDNLKQIDDRLDFLEEYG
